Usually Kd stands for the concentration at which binding is half-saturated. One may read the IC50 as the concentration that inhibits the measured activity by half. Lower therefore signals greater potency in that assay.

Assay [1] addresses T1, human Tim-3 IgV domain (aa. 22-130) (human, UniProt Q8TDQ0 22-130).
T1 construct: range 22-130
The assay is described as follows: gel filtration of the complex and X-ray crystallography, 2.11 angstrom. For orientation: In gel filtration, larger molecules generally elute earlier.

In assay [2] the target is T2, human Tim-3 expressed on cells (Jurkat cells stably expressing, Expi293 cells transiently expressing, … (human, UniProt Q8TDQ0 22-301)).
T2 construct: whole, on cells; One entry for all cell-surface forms; the cell type is named under assay; also called human Tim-3 expressed on the cell membrane
Nature of the assay: flow cytometry on activated human CD4 T cells, KD from MFI curve. Background: In flow cytometry, cells or beads pass a laser one at a time.

The target in assay [3] is T2, human Tim-3 expressed on cells (Jurkat …). The assay is described as follows: flow cytometry on activated human CD8 T cells, KD from MFI curve.
For assay [4] the target is unchanged. The assay is described as follows: flow cytometry on Jurkat cells stably expressing human Tim-3, KD from MFI curve.
For assay [5] the target is unchanged. Nature of the assay: flow cytometry on Expi293 cells transiently expressing human Tim-3, KD from MFI curve.
For assay [6], the target named is T3, biotinylated human Tim-3-Fc antigen (in-house preparation) (human, biotinylated).
T3 construct: limits of the Tim-3 part not given
The assay is described as follows: competition flow cytometry, biotinylated Tim-3-Fc premixed with antibody, binding to phosphatidylserine on apoptotic Jurkat cells (ligand not a protein).

The target in assay [7] is T3, biotinylated human Tim-3-Fc antigen …. Nature of the assay: competition ELISA: biotinylated human Tim-3-Fc premixed with the antibody, added to plate-bound human Galectin-9 (blocked ligand); streptavidin-HRP; Binding (%). In general terms: In an ELISA, binding on a coated surface is turned into a signal by an enzyme label.

B1: Hu149_83_scFv antibody (scFv, not shown: small tags and cut ends)
scFv: QVQLVQSGAEVKKPGASVKVSCKASGYTFTDYYMDWVRQAPGQGLEWLGYIYPNKGGTSYNQKFKGRVTMTTDKSTSTAYMELRSLRSDDTAVYYCARSGYGNYYTMDYWGQGTTVTVSSGGGGSGGGGSGGGGSGGGGSDIVMTQSQKFMSTSVGDRVSITCKASQSVGNNVAWYQQKPGQSPKLLIYYASNRYTGVPDRFTGSGSGTDFTLTISNMQSEDLADYFCQQHYSSPSTFGGGTKLEIK
notes: Secreted from E. coli with an N-terminal pelB leader (left out)
Take B1: in assay [1], the binding result is reported as “binds”.

B2: Ch003-LA antibody (antibody, V domains shown)
VH: EVMLMESGGGLVKLGGSLKLSCAASGFTFSSYYMSWVRQTPEKRLEWVATISNSGGSIYYLDSVKDRFTISRDNAKNTLYLQMSSLNSEDTAVYYCARDPYYSNYVPMDYWGQGTSVTVSS
VL: SIVMTQTPKFMSTSVGDRVSVTCKASQYVDTYVAWYQQKPGQSPKPLIYSASTRHTGVPARFTGSGSGTDFTLTISNVQSEDLAEYFCAQYSSSPLTFGAGTKLELK
notes: IgG1_LALA type antibody (L234A and L235A in the Fc region of IgG1)
As to B2, the Kd in assay [2] turned out to be 105 pM; in assay [3], 112 pM; in assay [4] it was 82.8 pM; in assay [5], 891 pM. In addition, the IC50 in assay [6] was 9910 pM. Further, in assay [7], the “IC50 (read off the curve)” value was around 500 pM.

The values above are taken from patent US20240391997A1 (BRIGHTPATH BIOTHERAPEUTICS, published 2024).
